Data set [1] relates to T1, HBV 11-12L.1090QE Linker1923(1/2) meganuclease (synthetic (I-CreI derived)).
T1 sequence: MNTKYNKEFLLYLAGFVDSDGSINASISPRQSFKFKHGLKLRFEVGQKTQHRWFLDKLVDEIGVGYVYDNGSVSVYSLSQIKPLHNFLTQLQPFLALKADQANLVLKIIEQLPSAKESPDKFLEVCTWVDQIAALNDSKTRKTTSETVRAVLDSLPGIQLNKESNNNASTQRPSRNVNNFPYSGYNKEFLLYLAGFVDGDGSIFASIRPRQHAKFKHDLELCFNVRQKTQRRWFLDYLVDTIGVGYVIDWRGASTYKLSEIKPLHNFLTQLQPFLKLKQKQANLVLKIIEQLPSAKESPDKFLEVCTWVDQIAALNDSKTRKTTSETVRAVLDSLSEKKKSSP
Briefly: cell_activity. The note with it: off-target, HepG2-sAg, 100 ng mRNA, below LOD; 0.2% in naive PHH at 500 ng.

Data set [2] concerns T2, HBV 11-12L.1090QQ Linker1 meganuclease (synthetic (I-CreI derived, Chlamydomonas reinhardtii)).
T2 sequence: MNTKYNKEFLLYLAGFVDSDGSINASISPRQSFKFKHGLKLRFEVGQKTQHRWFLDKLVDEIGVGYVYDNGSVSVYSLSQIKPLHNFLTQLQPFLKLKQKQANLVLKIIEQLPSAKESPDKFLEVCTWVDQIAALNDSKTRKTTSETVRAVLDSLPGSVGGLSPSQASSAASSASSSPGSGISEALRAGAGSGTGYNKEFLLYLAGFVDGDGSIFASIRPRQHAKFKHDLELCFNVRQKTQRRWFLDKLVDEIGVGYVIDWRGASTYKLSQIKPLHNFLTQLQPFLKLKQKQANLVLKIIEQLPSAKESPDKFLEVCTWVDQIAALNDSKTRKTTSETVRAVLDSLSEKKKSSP
The experiment in a line: cell_activity. The note with it: off-target, HepG2-sAg, 100 ng mRNA; on-target about 60%.

Data set [3] concerns T3, HBV 11-12L.1090QQ Linker1923(1/2) meganuclease (synthetic (I-CreI derived)).
T3 sequence: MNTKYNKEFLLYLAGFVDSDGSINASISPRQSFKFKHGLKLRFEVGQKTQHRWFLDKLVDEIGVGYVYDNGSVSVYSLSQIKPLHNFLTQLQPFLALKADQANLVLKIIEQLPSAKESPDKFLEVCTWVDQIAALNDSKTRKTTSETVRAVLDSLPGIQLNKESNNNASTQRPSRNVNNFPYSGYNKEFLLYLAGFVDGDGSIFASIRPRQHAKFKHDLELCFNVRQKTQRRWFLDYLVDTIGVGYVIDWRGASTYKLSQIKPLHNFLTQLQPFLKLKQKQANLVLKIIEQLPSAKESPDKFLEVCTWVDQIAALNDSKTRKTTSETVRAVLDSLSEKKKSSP
Briefly: cell_activity. Particulars: off-target, HepG2-sAg, 100 ng mRNA; on-target about 60%.

In data set [4] the target is T4, HBV 11-12L.1090QE Linker1923(1/2) meganuclease (synthetic (I-CreI derived)).
T4 chain: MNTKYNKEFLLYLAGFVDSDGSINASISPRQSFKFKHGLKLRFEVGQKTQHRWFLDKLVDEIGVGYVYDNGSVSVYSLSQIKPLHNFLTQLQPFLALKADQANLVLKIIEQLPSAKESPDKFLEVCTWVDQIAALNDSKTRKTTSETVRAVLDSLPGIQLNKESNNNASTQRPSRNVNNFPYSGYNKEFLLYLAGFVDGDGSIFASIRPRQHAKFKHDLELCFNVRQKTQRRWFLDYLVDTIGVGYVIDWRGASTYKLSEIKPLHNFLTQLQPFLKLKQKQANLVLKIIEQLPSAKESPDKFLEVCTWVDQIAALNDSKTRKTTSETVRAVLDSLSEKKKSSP
The experiment in a line: cell_activity; indel formation in HepG2-sAg, day 2; EC90 23.93 ng. The note with it: tags: SV40 NLS (N- and C-terminal in pRNA8), mRNA-delivered.

The target in data set [5] is T5, HBV 11-12L.1090QQ Linker1923(1/2) meganuclease (synthetic (I-CreI derived)).
T5 chain: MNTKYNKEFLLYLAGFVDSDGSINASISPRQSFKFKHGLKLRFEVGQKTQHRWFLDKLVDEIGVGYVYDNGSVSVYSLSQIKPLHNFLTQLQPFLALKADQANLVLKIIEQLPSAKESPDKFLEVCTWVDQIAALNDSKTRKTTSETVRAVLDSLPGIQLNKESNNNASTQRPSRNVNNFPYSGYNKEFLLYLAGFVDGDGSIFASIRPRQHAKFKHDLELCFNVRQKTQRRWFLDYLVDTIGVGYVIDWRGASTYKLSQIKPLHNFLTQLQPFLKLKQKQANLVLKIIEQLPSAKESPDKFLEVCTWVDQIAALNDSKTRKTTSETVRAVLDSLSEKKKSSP
The experiment in a line: cell_activity; indel formation in HepG2-sAg, day 2; EC90 4.93 ng. The note with it: tags: SV40 NLS (N- and C-terminal in pRNA8), mRNA-delivered.

For the molecule top off-target site Chr17:17242769, the activity in data set [1] is below 0.2 % editing; in data set [2], 0.5 % editing; in data set [3], 2 % editing.

B1: HBV 11-12 recognition sequence (dsDNA)
DNA 1: TGCCGATCCATACTGCGGAACT
DNA 2: AGTTCCGCAGTATGGATCGGCA
Consider B1, for which the EC50 was determined as 2.3 ng mRNA in data set [4] and 0.26 ng mRNA in data set [5].

For the origin of these results see patent publication US20250346877, “[…] MEGANUCLEASES HAVING […] FOR A RECOGNITION SEQUENCE IN THE […] B VIRUS GENOME” (Precision BioSciences, Inc., published 2025).
